Changes are numbered by the printed parent chain.
Key:
[1] = biological target: SARS-CoV-2 full-length S protein on lentiviral VLP (SARS-CoV-2, UniProt P0DTC2 P0DTC2:14-1273); assay: cell_activity; conditions: protein: virion, tags: GenTarget VLP001, GFP reporter VLP, chain copies: 3 (inferred)
ACE2/ACEH = ACE2/ACEH (Homo sapiens, UniProt Q9BYF1 Q9BYF1:18-740); assay: SPR; conditions: tags: Fc-tag, ACRO Biosystems AC2-H5257; chain copies: 2
[2] = biological target: SARS-CoV-2 nucleocapsid protein (SARS-CoV-2, UniProt P0DTC9 P0DTC9:1-419); assay: SPR; conditions: tags: AcroBiosystems C5227 / RayBiotech 230-01104

With TAGGGAAGAGAAGGACAATGATTTTGGGCGGGTTGA (ssDNA) [AYA2012004_L-M1] the activity [1] was ~50 % inhibition, the binding result (ACE2/ACEH) was “no binding” and the binding result [2] was “no binding”.

B1: AYA2012004_L-M2 (structured_DNA)
DNA 1: TTTTTTAGGGAAGAGAAGGACAATGATTTTGGGCGGGTTGA
DNA 2: B1 DNA 1 with T1A, T2A, T3A, T4A, T5A
B1 was tested, and the activity [1] was ~60 % inhibition, the binding result (ACE2/ACEH) was “no binding” and the binding result [2] was “no binding”.

B2: SB3L (AYA2012004_L) (ssDNA)
DNA: TAGGGAAGAGAAGGACAATGATTTTGGGCGGGTTGAGGTGGGGGAGGAGGAGGTAGTTAGAGTTGACTAGTACATGACCACTTGA
For B2, the activity ([1]; label: 5'-biotin, two hairpins (predicted)) was ~70 % inhibition, the binding result (ACE2/ACEH) was “no binding” and the binding result [2] was “no binding”.

— patent US20240287527, “VIRAL PROTEIN […] […] AND METHODS OF USE IN DIAGNOSTICS, […] PURPOSES” (AYASS BIOSCIENCE LLC, published 2024)
